Data: article PMC4507011

Tests used:
[1] = target: dehydrogenase domain (DH) of MtCDH variant M309A (Myriococcum thermophilum)
[2] = target: dehydrogenase domain (DH) of MtCDH variant M309R (Myriococcum thermophilum)
[3] = target: dehydrogenase domain (DH) of MtCDH variant N292S (Myriococcum thermophilum)
[4] = target: dehydrogenase domain (DH) of MtCDH variant N700S (Myriococcum thermophilum)
[5] = target: dehydrogenase domain (DH) of MtCDH variant R698S (Myriococcum thermophilum)
[6] = target: dehydrogenase domain (DH) of MtCDH variant S298Q (Myriococcum thermophilum)
[7] = target: dehydrogenase domain (DH) of MtCDH variant W295A (Myriococcum thermophilum)
[8] = target: dehydrogenase domain (DH) of MtCDH variant Y549F (Myriococcum thermophilum)
[9] = target: dehydrogenase domain (DH) of MtCDH variant Y619Q (Myriococcum thermophilum)
[10] = target: dehydrogenase domain (DH) of Myriococcum thermophilum cellobiose dehydrogenase, wild type (Myriococcum thermophilum)
[11] = target: T1, Neurospora crassa lytic polysaccharide monooxygenase NcLPMO9F (Neurospora crassa) (UniProt Q1K4Q1)
T1 sequence (chain, non-glycosylated; N-terminal histidine not methylated): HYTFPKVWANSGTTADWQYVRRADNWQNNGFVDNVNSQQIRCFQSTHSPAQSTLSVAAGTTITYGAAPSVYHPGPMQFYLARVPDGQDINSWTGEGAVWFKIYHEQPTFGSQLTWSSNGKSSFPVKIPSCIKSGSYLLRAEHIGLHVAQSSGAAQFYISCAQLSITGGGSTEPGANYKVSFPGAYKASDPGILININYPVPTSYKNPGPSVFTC

[12] = target: T1, Neurospora crassa lytic polysaccharide monooxygenase NcLPMO9F (Neurospora crassa); remark: listed apart in the source

Q: For “cytochrome domain (CYT) of Myriococcum thermophilum cellobiose dehydrogenase (domain or fragment)”, which haem b reduction rate kobs (interdomain electron transfer) of 5 μM full-length MtCDH M309A with 25 mM cellobiose, stopped flow at 563 nm, 30 °C, pH 5.0 [1] is on record?
A: Its haem b reduction rate kobs (interdomain electron transfer) of 5 μM full-length MtCDH M309A with 25 mM cellobiose, stopped flow at 563 nm, 30 °C, pH 5.0 is 0.056 s⁻¹.

Q: And the haem b reduction rate kobs (interdomain electron transfer) of 5 μM full-length MtCDH M309R with 25 mM cellobiose, stopped flow at 563 nm, 30 °C, pH 5.0 [2]?
A: Its haem b reduction rate kobs (interdomain electron transfer) of 5 μM full-length MtCDH M309R with 25 mM cellobiose, stopped flow at 563 nm, 30 °C, pH 5.0 is 0.088 s⁻¹.

Q: And the haem b reduction rate kobs (interdomain electron transfer) of 5 μM full-length MtCDH N292S with 25 mM cellobiose, stopped flow at 563 nm, 30 °C, pH 5.0 [3]?
A: Its haem b reduction rate kobs (interdomain electron transfer) of 5 μM full-length MtCDH N292S with 25 mM cellobiose, stopped flow at 563 nm, 30 °C, pH 5.0 is 0.95 s⁻¹.

Q: And the haem b reduction rate kobs (interdomain electron transfer) of 5 μM full-length MtCDH N700S with 25 mM cellobiose, stopped flow at 563 nm, 30 °C, pH 5.0 [4]?
A: Its haem b reduction rate kobs (interdomain electron transfer) of 5 μM full-length MtCDH N700S with 25 mM cellobiose, stopped flow at 563 nm, 30 °C, pH 5.0 is 1.37 s⁻¹.

Q: What about the haem b reduction rate kobs (interdomain electron transfer) of 5 μM full-length MtCDH R698S with 25 mM cellobiose, stopped flow at 563 nm, 30 °C, pH 5.0 [5] of the same molecule?
A: Its haem b reduction rate kobs (interdomain electron transfer) of 5 μM full-length MtCDH R698S with 25 mM cellobiose, stopped flow at 563 nm, 30 °C, pH 5.0 is 0.011 s⁻¹.

Q: And the haem b reduction rate kobs (interdomain electron transfer) of 5 μM full-length MtCDH S298Q with 25 mM cellobiose, stopped flow at 563 nm, 30 °C, pH 5.0 [6]?
A: Its haem b reduction rate kobs (interdomain electron transfer) of 5 μM full-length MtCDH S298Q with 25 mM cellobiose, stopped flow at 563 nm, 30 °C, pH 5.0 is 0.09 s⁻¹.

Q: What about the haem b reduction rate kobs (interdomain electron transfer) of 5 μM full-length MtCDH W295A with 25 mM cellobiose, stopped flow at 563 nm, 30 °C, pH 5.0 [7] of the same molecule?
A: The haem b reduction rate kobs (interdomain electron transfer) of 5 μM full-length MtCDH W295A with 25 mM cellobiose, stopped flow at 563 nm, 30 °C, pH 5.0 was 0.86 s⁻¹.

Q: And the haem b reduction rate kobs (interdomain electron transfer) of 5 μM full-length MtCDH Y549F with 25 mM cellobiose, stopped flow at 563 nm, 30 °C, pH 5.0 [8]?
A: Its haem b reduction rate kobs (interdomain electron transfer) of 5 μM full-length MtCDH Y549F with 25 mM cellobiose, stopped flow at 563 nm, 30 °C, pH 5.0 is 0.76 s⁻¹.

Q: And the haem b reduction rate kobs (interdomain electron transfer) of 5 μM full-length MtCDH Y619Q with 25 mM cellobiose, stopped flow at 563 nm, 30 °C, pH 5.0 [9]?
A: Its haem b reduction rate kobs (interdomain electron transfer) of 5 μM full-length MtCDH Y619Q with 25 mM cellobiose, stopped flow at 563 nm, 30 °C, pH 5.0 is 0.38 s⁻¹.

Q: What about the haem b reduction rate kobs (flavin-to-haem interdomain electron transfer) of 5 μM full-length MtCDH wild type with 25 mM cellobiose, stopped flow at 563 nm, 30 °C, 50 mM sodium citrate pH 5.0 [10] of the same molecule?
A: Its haem b reduction rate kobs (flavin-to-haem interdomain electron transfer) of 5 μM full-length MtCDH wild type with 25 mM cellobiose, stopped flow at 563 nm, 30 °C, 50 mM sodium citrate pH 5.0 is 0.76 s⁻¹.

B1: cytochrome domain of Neurospora crassa cellobiose dehydrogenase IIA (separate fragment) (domain or fragment)
chain: QTAPKTFTHPDTGIVFNTWSASDSQTKGGFTVGMALPSNALTTDATEFIGYLECSSAKNGANSGWCGVSLRGAMTNNLLITAWPSDGEVYTNLMFATGYAMPKNYAGDAKITQIASSVNATHFTLVFRCQNCLSWDQDGVTGGISTSNKGAQLGWVQAFPSPGNPTCPTQITLSQHDNGMGQWGAAFDSNIANPSYTAWAAKATKTVTGTCSGPVTTSIAATPVPTGVSFDYIVVGGGAGGIPVADKLSESGKSVLLIEKGFASTGEHGGTLKPEWLNNTSLTRFDVPGLCNQIWKDSDGIACSDTDQMAGCVLGGGTAINAGLWYKPYTKDWDYLFPSGWKGSDIAGATSRALSRIPGTTTPSQDGKRYLQQGFEVLANGLKASGWKEVDSLKDSEQKNRTFSHTSYMYINGERGGPLATYLVSAKKRSNFKLWLNTAVKRVIREGGHITGVEVEAFRNGGYSGIIPVTNTTGRVVLSAGTFGSAKILLRSGIGPKDQLEVVKASADGPTMVSNSSWIDLPVGHNLVDHTNTDTVIQHNNVTFYDFYKAWDNPNTTDMNLYLNGRSGIFAQAAPNIGPLFWEEITGADGIVRQLHWTARVEGSFETPDGYAMTMSQYLGRGATSRGRMTLSPTLNTVVSDLPYLKDPNDKAAVVQGIVNLQKALANVKGLTWAYPSANQTAADFVDKQPVTYQSRRSNHWMGTNKMGTDDGRSGGTAVVDTNTRVYGTDNLYVVDASIFPGVPTTNPTAYIVVAAEHAAAKILAQPANEAVPKWGWCGGPTYTGSQTCQAPYKCEKQNDWYWQCV
Q: For B1, which haem b re-oxidation rate (kobs) of reduced NcCYT (4 μM) mixed with NcLPMO9F (20 μM), stopped flow at 563 nm, 30 °C, 50 mM sodium citrate pH 5.0 (re-oxidation by oxygen alone 0.0007 s^−1) [11] is on record?
A: Its haem b re-oxidation rate (kobs) of reduced NcCYT (4 μM) mixed with NcLPMO9F (20 μM), stopped flow at 563 nm, 30 °C, 50 mM sodium citrate pH 5.0 (re-oxidation by oxygen alone 0.0007 s^−1) is 67.2 s⁻¹.

B2: dehydrogenase domain of Neurospora crassa cellobiose dehydrogenase IIA (separate fragment) (domain or fragment)
chain: B1 chain
Q: With B2 as the molecule, how does the re-oxidation rate of the FAD cofactor of NcDH (10 μM) in the presence of 50 μM NcLPMO9F, stopped flow at 450 nm (0.0444 s^–1 without LPMO): unchanged, no electron transfer [12] read?
A: Its re-oxidation rate of the FAD cofactor of NcDH (10 μM) in the presence of 50 μM NcLPMO9F, stopped flow at 450 nm (0.0444 s^–1 without LPMO): unchanged, no electron transfer is 0.0442 s⁻¹.
